Source: US12571058

Molecular target: histidine kinase UzcS (Caulobacter crescentus NA1000)
Test: cell-based or functional assay

histidine kinase UzcS (Caulobacter crescentus NA1000), sequence (chain, as listed by the source limits assumed, form in doubt): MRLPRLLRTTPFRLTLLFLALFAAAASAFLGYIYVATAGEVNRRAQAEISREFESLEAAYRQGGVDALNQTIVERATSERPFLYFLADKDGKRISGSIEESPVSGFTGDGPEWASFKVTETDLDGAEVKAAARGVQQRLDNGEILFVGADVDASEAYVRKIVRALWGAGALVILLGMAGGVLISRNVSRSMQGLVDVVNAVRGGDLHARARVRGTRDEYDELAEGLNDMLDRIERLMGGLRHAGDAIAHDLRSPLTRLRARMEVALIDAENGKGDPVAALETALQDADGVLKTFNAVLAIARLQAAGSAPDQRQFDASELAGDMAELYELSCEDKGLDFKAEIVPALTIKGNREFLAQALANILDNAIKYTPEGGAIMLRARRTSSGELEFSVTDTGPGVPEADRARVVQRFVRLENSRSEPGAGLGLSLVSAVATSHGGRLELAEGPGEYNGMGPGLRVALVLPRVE

## UzcY
  fold decrease in U detection limit of UzcRS (reporter fluorescence with and without UzcY, FIG. 12): > 4 fold
